“Also recorded” adds a separate entry of the source. Read-outs that look alike come from different tables or passages of the source. Peptide text beside a SMILES is read from it.
Columns and labels:
[1] = test system: SK-MES-1, A-549, SKOV-3 and MCF-7 cells; test: In vitro receptor binding of radiolabeled peptides on four cell lines; set-up: species or system human; conditions: 2 hr at 37 °C
Description: (§1) The in vitro receptor binding of the^ 99mTc-labeled peptide was evaluated using SK-MES-1 a human lung squamous cell carcinoma, SKOV-3 human ovarian carcinoma, and A-549 human lung adenocarcinoma epithelial and MCF-7 human breast cancer cell lines. All cell lines were kept at 37 °C in a 5% CO2 incubator and were maintained in Dulbecco’s DMEM-high glucose supplemented with 10% FBS. Cells were plated in 24-well plates at a density of 4×10^5 cells/well in 1 ml of complete medium and incubated for 24 hr to allow in cells to settle. Following a wash with cold serum-free media or PBS, 40 nM radiolabeled peptides in the full medium were given to the cells, which were then incubated at 37 °C for 2 hr. Finally, cells in culture plates were trypsinized and released, and radioactivity in the cells was measured. To determine specific versus nonspecific binding, SK-MES-1 cells were seeded into 12-well plates at a density of 5×10^5 cells/well and incubated with unlabeled peptides at a concentration 500-fold higher than the labeled peptide for 20 min at 37 °C, followed by the addition of the radiolabeled peptide to the wells. These cells were incubated for 2 hr at 37 °C in a humidified incubator.

SK-MES-1 cells [2] = test: Specific binding (blocking with unlabeled peptide) on SK-MES-1 cells; set-up: species or system human
Description: as §1

SK-MES-1 cells [3] = test: Saturation binding assay on SK-MES-1 cells; set-up: species or system human
Description: The affinities of (^99mTc) Tc-HYNIC-peptides were determined utilizing a saturation binding experiment with cultivated cells in vitro for determination of the dissociation constant as KD and the number of binding sites per cell (Bmax). SK-MES-1 cells were incubated for 2 hr at 37 °C with increasing concentrations of (^99mTc) Tc- HYNIC- peptides (0.1, 0.5, 1, 2.5, 5, 25, and 50 nM). One dish served as a blocking sample, and it was immersed in a blocking solution containing a 500-fold excess of the non-labeled peptide. For each concentration, three dishes were utilized. Following incubation, the media was withdrawn, and the cells were trypsinized and collected for Gamma counter activity measurement. Prism 5 software (Ver. 5.0) was used to examine the particular binding data using nonlinear regression.

[4] = Biodistribution in SK-MES-1 xenografted nude mice; type: in vivo, female C57 nu/nu mice; conditions: female, C57 nu/nu, mouse, in vivo, iv, total radioactivity, SK-MES-1 xenograft nude mice, n=4; for tissue uptake at 1 h / tissue uptake at 2 h / tissue uptake at 4 h: mean ± SD
Description: (§2) The tumor biodistribution and targeting properties of the radiolabeled peptides were carried out in female C57 nu/nu mice bearing SK-MES-1 (Pasture Institute, North Branch and Amol, Iran). The tumor was grafted by subcutaneous injection of SK-MES-1 cells at a concentration of 4×10^6 cells/mouse into the right front flank of the mice and left to grow over a period of 20 days. The mice were ready for biodistribution when tumor size reached 0.7–1 cm^3 in mean diameter, all mice received intravenous co-injections of (^99mTc) Tc-HYNIC-(Ser)3-J18 peptide 1 or (^99mTc )Tc-HYNIC-(Ser)3-J18 peptide 2 (1 μg in 100 μl buffer) after 1, 2, and 4 hr post-injection, respectively (n=4 mice per group). In order to measure the radiopeptides’ nonspecific uptake of the radiopeptides, one group of four animals was injected with 300 μg of non-labeled peptide in a 50 μl buffer. The mice in the blocking group were euthanized 2 hr after the injection. Mice organ and tissue samples were collected, and radioactivity uptake was calculated as a percentage of the administered dose per gram tissue (%ID/g).

SK-MES-1 tumors = test: Biodistribution in SK-MES-1 xenografted nude mice; type: in vivo, female C57 nu/nu mice; conditions: SK-MES-1 xenograft nude mice, n=4; for Intestine uptake (with contents): mean ± SD
Description: as §2

A-549 cells = conditions: previously reported, listed as 99mTc-HYNIC-(Ser)3-J18 (Tricine); cited from earlier work
Text: Table 1 Overview of affinity binding ^99mTc-HYNIC-(Ser)3-J18 on SK-MES-1 vs A-549 cell line | column: A-549 / Tricine; A-549 / tricine/EDDA

[5] = 1 ug, i.v. 1 μg in 100 μl, read-out: Muscle uptake
[6] = 1 ug, i.v. 1 μg in 100 μl, read-out: Spleen uptake
[7] = 1 ug, i.v. 1 μg in 100 μl, read-out: Tumor uptake
[8] = 1 ug, read-out: Tumor/blood ratio
[9] = 1 ug, read-out: Tumor/bone ratio
[10] = 1 ug, read-out: Tumor/liver ratio
[11] = 1 ug, read-out: Tumor/muscle ratio

In the case of `CC(C)C[C@H](NC(=O)[C@H](CO)NC(=O)[C@H](CCCNC(=N)N)NC(=O)[C@H](CO)NC(=O)[C@H](CO)NC(=O)[C@H](CO)NC(=O)c1ccc(NN)nc1)C(=O)N[C@@H](Cc1c[nH]c2ccccc12)C(=O)N[C@@H](CO)C(=O)N[C@@H](CC(=O)O)C(=O)N[C@@H](Cc1ccccc1)C(=O)N[C@@H](Cc1ccc(O)cc1)C(=O)N[C@@H](C)C(=O)N[C@@H](CO)C(=O)N[C@@H](C)C(=O)N[C@@H](CO)C(=O)N[C@@H](CCCNC(=N)N)C(=O)NCC(=O)N1CCC[C@H]1C(=O)O` [Peptide 1, (^99mTc)Tc-HYNIC-(Ser)3-J18 with tricine, metal not drawn] (HELM PEPTIDE1{[NNc1ccc(C(=O)[*:2])cn1].S.S.S.R.S.L.W.S.D.F.Y.A.S.A.S.R.G.P}$$$$V2.0; C-terminus assumed), the “cellular affinity, in words” value ([1]; 40 nM radiolabeled peptide) is reported as “strongest cellular affinity for the SK-MES-1 cell line”, the “receptor binding affinity (as CPM/Cells value), tricine vs tricine/EDDA as coligand” value ([1]; higher than tricine/EDDA as coligand, 40 nM) is reported as 2.5 fold and the “reduction of binding by pre-saturation with unlabeled J18 peptide” value (SK-MES-1 cells [2]; 500-fold unlabeled peptide 20 min at 37 °C, then radiolabeled peptide 2 hr at 37 °C, listed as 99mTc-peptide 1) is reported as roughly 11.5 fold. The specific binding (SK-MES-1 cells [2]; abstract, listed as 99mTc-peptide 1) was 11.5 fold, the “specific binding to SK-MES-1, in words” value (SK-MES-1 cells [2]; listed as 99mTc-J18 peptide with tricine co-ligand) was “higher specific binding to SK-MES-1 in comparison with tricine/EDDA coligand” and the “specific binding to SK-MES-1, in words” value (SK-MES-1 cells [2]; listed as 99mTc-peptide 1) was “high specific binding; also recorded: high specificity”. For the same compound, the Bmax (SK-MES-1 cells [3]; Figure 4, saturation binding, 2 hr at 37 °C, listed as 99mTc-(tricine)-HYNIC-(Ser)3-J18) was “(2.2±0.2)·10^4 binding sites/cell”, the “binding affinity for SK-MES-1, in words” value (SK-MES-1 cells [3]; listed as 99mTc-peptide 1) was “high binding affinity; also recorded: good receptor-binding affinity” and the Kd (SK-MES-1 cells [3]; saturation binding, 0.1-50 nM, 2 hr at 37 °C, blocking with 500-fold excess non-labeled peptide, three dishes per concentration, Prism 5 nonlinear regression, listed as 99mTc-HYNIC-(Ser)3-J18 (Tricine)) was 3.1 ± 0.3 nM. The Bmax (SK-MES-1 cells [3]; saturation binding, 0.1-50 nM, 2 hr at 37 °C, three dishes per concentration, Prism 5 nonlinear regression, listed as 99mTc-HYNIC-(Ser)3-J18 (Tricine)) was “(2.2± 0.2)×10 ^4 binding sites/cell”, the tissue uptake at 1 h ([4]; 1 ug, i.v. 1 μg in 100 μl, read-out: Blood uptake) was 0.18 ± 0.09 %ID/g and the tissue uptake at 1 h [4, 5] was 0.19 ± 0.05 %ID/g. It also gave a tissue uptake at 1 h [4, 6] of 0.25 ± 0.07 %ID/g, a tissue uptake at 1 h ([4]; 1 ug, i.v. 1 μg in 100 μl, read-out: Stomach uptake) of 0.38 ± 0.09 %ID/g and a tissue uptake at 1 h [4, 7] of 0.97 ± 0.03 %ID/g. For the same compound, the tissue to tissue ratio at 1 h [4, 8] was 5.36, the tissue to tissue ratio at 1 h [4, 9] was 7.46 and the tissue to tissue ratio at 1 h [4, 10] was 3.59. It also gave a tissue to tissue ratio at 1 h [4, 11] of 5.1, a tissue uptake at 2 h ([4]; 1 ug, 2 hr, i.v. 1 μg in 100 μl, read-out: Heart uptake) of 0.12 ± 0.04 %ID/g and a tissue uptake at 2 h ([4]; 1 ug, 2 hr, i.v. 1 μg in 100 μl, read-out: Liver uptake) of 0.2 ± 0.09 %ID/g. For the same compound, the tissue uptake at 2 h ([4]; 1 ug, 2 hr, i.v. 1 μg in 100 μl, read-out: SG&T (salivary glands and thyroid) uptake) was 0.13 ± 0.05 %ID/g, the tissue uptake at 2 h ([4]; 1 ug, 2 hr, i.v. 1 μg in 100 μl, read-out: Spleen uptake) was 0.15 ± 0.04 %ID/g and the tissue uptake at 2 h ([4]; 1 ug, 2 hr, i.v. 1 μg in 100 μl, read-out: Stomach uptake) was 0.25 ± 0.03 %ID/g. The tissue uptake at 2 h ([4]; 1 ug, 2 hr, i.v. 1 μg in 100 μl, read-out: Tumor uptake) was 0.5 ± 0.03 %ID/g, the tissue to tissue ratio at 2 h ([4]; 1 ug, 2 hr, read-out: Tumor/liver ratio) was 2.5 and the tissue to tissue ratio at 2 h ([4]; 1 ug, 2 hr, read-out: Tumor/muscle ratio) was 6.16. For the same compound, the tissue uptake at 4 h ([4]; 1 ug, i.v. 1 μg in 100 μl, read-out: Bone uptake) was 0.01 %ID/g, the tissue uptake at 4 h ([4]; 1 ug, i.v. 1 μg in 100 μl, read-out: Heart uptake) was 0.07 ± 0.01 %ID/g and the tissue uptake at 4 h ([4]; 1 ug, i.v. 1 μg in 100 μl, read-out: Kidney uptake) was 0.27 ± 0.03 %ID/g. The tissue uptake at 4 h ([4]; 1 ug, i.v. 1 μg in 100 μl, read-out: Liver uptake) was 0.07 ± 0.02 %ID/g, the tissue uptake at 4 h ([4]; 1 ug, i.v. 1 μg in 100 μl, read-out: Lung uptake) was 0.04 ± 0.01 %ID/g and the tissue uptake at 4 h [4, 5] was 0.04 ± 0.01 %ID/g. The tissue uptake at 4 h ([4]; 1 ug, i.v. 1 μg in 100 μl, read-out: SG&T (salivary glands and thyroid) uptake) was 0.03 ± 0.02 %ID/g, the tissue uptake at 4 h [4, 6] was 0.03 ± 0.01 %ID/g and the tissue uptake at 4 h [4, 7] was 0.2 ± 0.09 %ID/g. It also gave a tissue to tissue ratio at 4 h [4, 8] of 3.81, a tissue to tissue ratio at 4 h [4, 9] of 20 and a tissue to tissue ratio at 4 h ([4]; 1 ug, read-out: Tumor/kidney ratio) of 0.74. The tissue to tissue ratio at 4 h [4, 10] was 2.85, the tissue to tissue ratio at 4 h [4, 11] was 5 and the tissue uptake at 2 h ([4]; 2h-blocked (300 μg non-labeled peptide 0.5 hr before), i.v. 1 μg, read-out: Blood uptake) was 0.36 ± 0.02 %ID/g. For the same compound, the tissue uptake at 2 h ([4]; 2h-blocked (300 μg non-labeled peptide 0.5 hr before), i.v. 1 μg, read-out: Heart uptake) was 0.18 ± 0.03 %ID/g, the tissue uptake at 2 h ([4]; 2h-blocked (300 μg non-labeled peptide 0.5 hr before), i.v. 1 μg, read-out: Kidney uptake) was 3.2 ± 0.02 %ID/g and the tissue uptake at 2 h ([4]; 2h-blocked (300 μg non-labeled peptide 0.5 hr before), i.v. 1 μg, read-out: Liver uptake) was 0.23 ± 0.04 %ID/g. The tissue uptake at 2 h ([4]; 2h-blocked (300 μg non-labeled peptide 0.5 hr before), i.v. 1 μg, read-out: Muscle uptake) was 0.23 ± 0.03 %ID/g, the tissue uptake at 2 h ([4]; 2h-blocked (300 μg non-labeled peptide 0.5 hr before), i.v. 1 μg, read-out: SG&T (salivary glands and thyroid) uptake) was 0.17 ± 0.02 %ID/g and the tissue uptake at 2 h ([4]; 2h-blocked (300 μg non-labeled peptide 0.5 hr before), i.v. 1 μg, read-out: Spleen uptake) was 0.2 ± 0.01 %ID/g. It also gave a tissue uptake at 2 h ([4]; 2h-blocked (300 μg non-labeled peptide 0.5 hr before), i.v. 1 μg, read-out: Stomach uptake) of 0.3 ± 0.02 %ID/g, a tissue to tissue ratio at 2 h ([4]; 2h-blocked (300 μg non-labeled peptide), read-out: Tumor/blood ratio) of 0.8 and a tissue to tissue ratio at 2 h ([4]; 2h-blocked (300 μg non-labeled peptide), read-out: Tumor/liver ratio) of 1.26. The tissue to tissue ratio at 2 h ([4]; 2h-blocked (300 μg non-labeled peptide), read-out: Tumor/muscle ratio) was 1.26, the “Intestine uptake (with contents)” value (SK-MES-1 tumors; 1 hr, i.v. 1 μg in 100 μl) was 0.73±0.06 percentage of injected dose per whole sample and the Tumor/muscle ratio (SK-MES-1 tumors; 1 hr, listed as 99mTc-peptide 1) was 5.1. For the same compound, the “Intestine uptake (with contents)” value (SK-MES-1 tumors; 2h-blocked (300 μg non-labeled peptide 0.5 hr before), i.v. 1 μg) was 0.24 ±0.09 percentage of injected dose per whole sample, the “Intestine uptake (with contents)” value (SK-MES-1 tumors; 2 hr, i.v. 1 μg in 100 μl) was 0.59±0.02 percentage of injected dose per whole sample and the “Intestine uptake (with contents)” value (SK-MES-1 tumors; 4 hr, i.v. 1 μg in 100 μl) was 0.04±0.01 percentage of injected dose per whole sample. For the same compound, the Kd (A-549 cells) was 4.1 ± 1.3 nM.

— article PMC8751750, “Effect of using different co-ligands during ^99mTc-labeling of J18 peptide on SK-MES-1 cell binding and tumor targeting” (Iranian Journal of Basic Medical Sciences, 2021)
